# Experimental data reported in publication PMC3850785.
# B1: human GST P1-1 (Homo sapiens) (protein)
# chain: PPYTVVYFPVRGRCAALRMLLADQGQSWKEEVVTVETWQEGSLKASCLYGQLPKFQDGDLTLYQSNTILRHLGRTLGLYGKDQQEAALVDMVNDGVEDLRCKYISLIYTNYEAGKDDYVKALPGQLKPFETLLSQNQGGKTFIVGDQISFADYNLLDLLLIHEVLAPGCLDAFPLLSAYVGRLSARPKLKAFLASPEYVNLPINGNGKQ
# B2: human GST A1-1 (Homo sapiens) (protein)
# chain: AEKPKLHYFNARGRMESTRWLLAAAGVEFEEKFIKSAEDLDKLRNDGYLMFQQVPMVEIDGMKLVQTRAILNYIASKYNLYGKDIKERALIDMYIEGIADLGEMILLLPVCPPEEKDAKLALIKEKIKNRYFPAFEKVLKSHGQDYLVGNKLSRADIHLVELLYYVEELDSSLISSFPLLKALKTRISNLPTVKKFLQPGSPRKPPMDEKSLEEARKIFRF
# B3: human GST T1-1 (Homo sapiens) (protein)
# chain: GLELYLDLLSQPCRAVYIFAKKNDIPFELRIVDLIKGQHLSDAFAQVNPLKKVPALKDGDFTLTESVAILLYLTRKYKVPDYWYPQDLQARARVDEYLAWQHTTLRRSCLRALWHKVMFPVFLGEPVSPQTLAATLAELDVTLQLLEDKFLQNKAFLTGPHISLADLVAITELMHPVGAGCQVFEGRPKLATWRQRVEAAVGEDLFQEAHEVILKAKDFPPADPTIKQKLMPWVLAMIR
# B4: rat GST 5-5 (Rattus norvegicus) (protein)
# chain: VLELYLDLLSQPCRAIYIFAKKNNIPFQMHTVELRKGEHLSDAFAQVNPMKKVPAMKDGGFTLCESVAILLYLAHKYKVPDHWYPQDLQARARVDEYLAWQHTTLRRSCLRTLWHKVMFPVFLGEQIRPEMLAATLADLDVNVQVLEDQFLQDKDFLVGPHISLADVVAITELMHPVGGGCPVFEGRPRLAAWYRRVEAAVGKDLFLEAHEVILKVRDCPPADPVIKQKLMPRVLTMIQ
# B5: human GST M1-1 (Homo sapiens) (protein)
# chain: PMILGYWDIRGLAHAIRLLLEYTDSSYEEKKYTMGDAPDYDRSQWLNEKFKLGLDFPNLPYLIDGAHKITQSNAILCYIARKHNLCGETEEEKIRVDILENQTMDNHMQLGMICYNPEFEKLKPKYLEELPEKLKLYSEFLGKRPWFAGNKITFVDFLVYDVLDLHRIFEPKCLDAFPNLKDFISRFEGLEKISAYMKSSRFLPRPVFSKMAVWGNK
# B6: human GST A3-3 (Homo sapiens) (protein)
# chain: AGKPKLHYFNGRGRMEPIRWLLAAAGVEFEEKFIGSAEDLGKLRNDGSLMFQQVPMVEIDGMKLVQTRAILNYIASKYNLYGKDIKERALIDMYTEGMADLNEMILLLPLCRPEEKDAKIALIKEKTKSRYFPAFEKVLQSHGQDYLVGNKLSRADISLVELLYYVEELDSSLISNFPLLKALKTRISNLPTVKKFLQPGSPRKPPADAKALEEARKIFRF
# Experiments:
# Assay in all cases: purified protein
# Details in all cases: 5 mM GSH, 0.10 M Tris-HCl pH 7.7, 37 °C, 1 h
# purified protein [1] = substrate: C1O[C@H]1[C@H]1CO1
# purified protein [2] = substrate: C1O[C@@H]1[C@@H]1CO1
# purified protein [3] = substrate: C1O[C@@H]1[C@H]1CO1
Protein,Km (purified protein [1]) [µM],kcat (purified protein [1]) [s⁻¹],kcat/Km (purified protein [1]) [M⁻¹ s⁻¹],Km (purified protein [2]) [µM],kcat (purified protein [2]) [s⁻¹],kcat/Km (purified protein [2]) [M⁻¹ s⁻¹],Km (purified protein [3]) [µM],kcat (purified protein [3]) [s⁻¹],kcat/Km (purified protein [3]) [M⁻¹ s⁻¹]
B1,910 ± 10,0.0442,48.3,740 ± 330,0.044,65,590 ± 150,0.0265,46.7
B2,320 ± 10,0.0218,68.3,300 ± 50,0.0228,78.3,540 ± 30,0.0342,63.3
B3,930 ± 10,0.0617,66.7,790 ± 30,0.0618,78.3,370 ± 10,0.0403,108
B4,800 ± 60,0.0573,71.7,770 ± 20,0.0638,83.3,830 ± 150,0.0308,38.3
B5,810 ± 50,0.074,91.7,730 ± 60,–,–,920 ± 330,0.0497,56.7
B6,510 ± 80,0.028,55,480 ± 330,0.0253,66.7,750 ± 120,0.0302,40
